Results reported in US20260015426A1 (23ANDME, published 2026).
One block for each binder: values may come before it.

Experiments:
[1] = target: T1, human IL1RAP (hu-IL1RAP) on human cells (human, UniProt Q9NPH3 21-570); assay: cell-based or functional assay
T1 sequence: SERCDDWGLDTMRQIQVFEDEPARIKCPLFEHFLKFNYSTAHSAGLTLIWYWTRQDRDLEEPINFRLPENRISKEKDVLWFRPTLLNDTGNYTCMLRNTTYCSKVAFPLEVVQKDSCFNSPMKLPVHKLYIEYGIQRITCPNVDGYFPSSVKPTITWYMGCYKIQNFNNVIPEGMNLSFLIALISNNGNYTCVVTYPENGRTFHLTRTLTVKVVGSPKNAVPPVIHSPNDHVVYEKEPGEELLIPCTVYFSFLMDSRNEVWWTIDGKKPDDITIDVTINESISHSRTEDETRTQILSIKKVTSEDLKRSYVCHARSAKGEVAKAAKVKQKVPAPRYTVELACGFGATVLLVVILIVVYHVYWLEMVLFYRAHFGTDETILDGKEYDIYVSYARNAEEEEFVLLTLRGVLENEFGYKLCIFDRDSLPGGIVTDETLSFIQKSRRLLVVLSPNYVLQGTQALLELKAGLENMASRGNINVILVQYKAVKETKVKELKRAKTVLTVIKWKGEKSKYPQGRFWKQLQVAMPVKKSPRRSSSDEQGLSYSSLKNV

[2] = target: T2, hu-M-IL1RAP construct, positions S21-T367 (extracellular domain of the membrane form of human IL1RAP) (human, UniProt Q9NPH3 21-367); assay: BLI (OCTET), mAb captured, 25 C
T2 construct: Biotinylated when captured on the Biacore chip
T2 sequence: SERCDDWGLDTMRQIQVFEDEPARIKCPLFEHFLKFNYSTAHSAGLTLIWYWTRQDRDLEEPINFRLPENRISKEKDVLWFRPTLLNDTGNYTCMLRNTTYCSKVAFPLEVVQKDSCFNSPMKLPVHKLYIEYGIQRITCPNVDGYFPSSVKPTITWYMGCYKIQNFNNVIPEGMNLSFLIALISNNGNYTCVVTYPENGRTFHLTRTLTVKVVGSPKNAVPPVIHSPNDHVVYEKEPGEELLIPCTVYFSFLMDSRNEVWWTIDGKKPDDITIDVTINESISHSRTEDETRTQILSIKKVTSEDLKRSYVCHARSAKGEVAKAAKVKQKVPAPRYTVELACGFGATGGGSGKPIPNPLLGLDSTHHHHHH
Procedure: All samples were placed in black 96-well plates and the experiment was performed at 25° C. […] The biosensors were equilibrated in experimental buffer at 25° C. for ten minutes prior to starting the experiment.
The resulting BLI signal from analyte association and dissociation from the immobilized antibody was analyzed using the Octet Data Analysis software (Pall ForteBio). First, a reference subtraction was performed on all recorded traces using the reference well (biosensor that underwent the same steps as experimental wells but no analyte for the Association step), then all the traces were aligned to the beginning of the Association step.

[3] = target: T3, cyno-M-IL1RAP construct, positions S21-T367 (cynomolgus monkey, UniProt P59822 21-367 (rhesus entry)); assay: SPR, IgG analyte (apparent), 37 C, pH 6
T3 construct: Biotinylated when captured on the Biacore chip; also called cy-M-IL1RAP
T3 sequence: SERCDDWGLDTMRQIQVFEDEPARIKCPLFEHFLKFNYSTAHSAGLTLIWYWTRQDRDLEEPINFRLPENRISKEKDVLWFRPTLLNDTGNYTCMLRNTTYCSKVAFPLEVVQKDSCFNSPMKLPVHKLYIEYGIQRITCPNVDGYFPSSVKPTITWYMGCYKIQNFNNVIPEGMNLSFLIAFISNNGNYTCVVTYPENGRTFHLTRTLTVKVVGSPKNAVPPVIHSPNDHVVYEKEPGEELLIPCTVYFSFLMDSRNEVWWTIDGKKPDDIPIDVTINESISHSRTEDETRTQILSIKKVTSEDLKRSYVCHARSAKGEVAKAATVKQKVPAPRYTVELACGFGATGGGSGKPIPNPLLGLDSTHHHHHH
Procedure: (§1) Surface plasmon resonance (SPR) analysis was used to determine binding affinity for hu-M-IL1RAP of the purified Fabs containing the selected single, double, and triple mutations in either the VL or VH regions using a BIACORE™ 8K instrument. […] For kinetics measurements, 5 nM biotinylated hu-M-IL1RAP was captured at 10 μL/min to achieve ˜50 response units in the second flow cell (FC2). FC1 was kept as a reference. […] The sensorgrams were recorded and subjected to reference and buffer subtraction before data analysis with the BIACORE® 8K Evaluation Software (version 1.1.1.7442). Association rates (kₒₙ) and dissociation rates (koff) were calculated using a simple one-to-one Langmuir binding model. The equilibrium dissociation constant (KD) was calculated as the ratio of koff/kₒₙ.

[4] = target: T2, hu-M-IL1RAP construct, positions …; assay: SPR, IgG analyte (apparent), 37 C, pH 6
Procedure: as §1

[5] = target: T1, human IL1RAP (hu-IL1RAP) on human cells; assay: cell-based or functional assay; remark: listed apart in the source
[6] = target: T3, cyno-M-IL1RAP construct, positions …; assay: SPR, 37 C
Procedure: as §1

[7] = target: T2, hu-M-IL1RAP construct, positions …; assay: SPR, 37 C
Procedure: as §1

[8] = target: T3, cyno-M-IL1RAP construct, positions …; assay: SPR, IgG analyte (apparent), 37 C, pH 7.4
Procedure: as §1

[9] = target: T2, hu-M-IL1RAP construct, positions …; assay: SPR, IgG analyte (apparent), 37 C, pH 7.4
Procedure: as §1

B1: h11C5_C59Y (C59Y variant of h11C5) (antibody, human IgG1, V domains shown)
VH: EVQLVESGGGLVQPGGSLRLSCAASGFTFSNYAMSWVRQAPGKGLEWVATVTEGGDYNYYLDDVKGRFTISRDNAKNSLYLQMNSLRAEDTAVYYCARDRWPYFFDYWGQGTLVTVSS
VL: DIQMTQSPSSLSASVGDRVTITCRASENIYSNLAWYQQKPGKAPKLLVYGAKNLADGVPSRFSGSGSGTDYTLTISSLQPEDFATYYCQHFWTTPRTFGGGTKVEIK
notes: Human IgG1/kappa constant domains
HEK-Blue, IL-1β, IC50 [1]: 1.03 nM | HEK-Blue, IL-33, IC50 [1]: 3.75 nM | Kd [2]: 1.34 nM

B2: h11C5 (humanized 11C5 mAb) (antibody, human IgG1, kappa, N297G, V domains shown)
VH: EVQLVESGGGLVQPGGSLRLSCAASGFTFSNYAMSWVRQAPGKGLEWVATVTEGGDYNYCLDDVKGRFTISRDNAKNSLYLQMNSLRAEDTAVYYCARDRWPYFFDYWGQGTLVTVSS
VL: DIQMTQSPSSLSASVGDRVTITCRASENIYSNLAWYQQKPGKAPKLLVYGAKNLADGVPSRFSGSGSGTDYTLTISSLQPEDFATYYCQHFWTTPRTFGGGTKVEIKR
notes: Human IgG1/kappa
HEK-Blue, IL-1β, IC50 [1]: 3.12 nM | HEK-Blue, IL-33, % inhibition at 100 nM [1]: 80% | HEK-Blue, IL-33, IC50 [1]: 24 nM | Kd [2]: 1.06 nM

B3: h11C5 variant K17/H3 IgG (YKS) (antibody, V domains shown)
VH: EVQLVESGGGLVQPGGSLRLSCAASGFTFSNYAMSWVRQAPGKGLEWVATSTEGGDYNYYLDDVKGRFTISRDNAKNSLYLQMNSLRAEDTAVYYCARDRWPYFFDYWGQGTLVTVSS
VL: DIQMTQSPSSLSASVGDRVTITCRASENIYSNLAWYQQKPGKSPKLLVYGYKNLADGVPSRFSGSGSGTDYTLTISSLQPEDFATYYCQHFKTTPRTFGGGTKVEIKR
notes: Human IgG1 N297G; also called 11C5-YKS
Kd [3]: 0.101 nM | koff [3]: 0.000121 s⁻¹ | kon [3]: 1.2e+06 M⁻¹ s⁻¹ | Kd [4]: 0.0962 nM | koff [4]: 0.000182 s⁻¹ | kon [4]: 1.9e+06 M⁻¹ s⁻¹ | HEK-Blue, IL-1β, % inhibition at 100 nM (IgG) [5]: 100% | HEK-Blue, IL-1β, IC50 (IgG) [5]: 0.429 nM | HEK-Blue, IL-33, % inhibition at 100 nM (IgG) [5]: 87% | HEK-Blue, IL-33, IC50 (IgG) [5]: 2.5 nM | HEK-Blue, IL-36α, % inhibition at 100 nM (IgG) [5]: 96% | HEK-Blue, IL-36α, IC50 (IgG) [5]: 0.418 nM | KD (6)/KD (7.4) [6]: 4.6 ratio | KD (7.4) ratio to YIS [6]: 1.6 ratio | koff (6) ratio to YIS [6]: 1.7 ratio | KD (6)/KD (7.4) [7]: 4.3 ratio | KD (7.4) ratio to YIS [7]: 1.1 ratio | koff (6) ratio to YIS [7]: 1.2 ratio | Kd [8]: 0.0221 nM | koff [8]: 4.51e-05 s⁻¹ | kon [8]: 2.04e+06 M⁻¹ s⁻¹ | Kd [9]: 0.0226 nM | koff [9]: 3.87e-05 s⁻¹ | kon [9]: 1.71e+06 M⁻¹ s⁻¹

B4: h11C5 variant K13/H2 IgG (YID) (antibody, V domains shown)
VH: EVQLVESGGGLVQPGGSLRLSCAASGFTFSNYAMSWVRQAPGKGLEWVATVTEGGDYNYYLDDVKGRFTISRDNAKNSLYLQMNSLRAEDTAVYYCARDDWPYFFDYWGQGTLVTVSS
VL: DIQMTQSPSSLSASVGDRVTITCRASENIYSNLAWYQQKPGKSPKLLVYGYKNLADGVPSRFSGSGSGTDYTLTISSLQPEDFATYYCQHFITTPRTFGGGTKVEIKR
notes: Human IgG1 N297G; also called 11C5-YID
Kd [3]: 0.0993 nM | koff [3]: 0.000215 s⁻¹ | kon [3]: 2.16e+06 M⁻¹ s⁻¹ | Kd [4]: 0.141 nM | koff [4]: 0.000414 s⁻¹ | kon [4]: 2.94e+06 M⁻¹ s⁻¹ | HEK-Blue, IL-1β, % inhibition at 100 nM (IgG) [5]: 100% | HEK-Blue, IL-1β, IC50 (IgG) [5]: 0.361 nM | HEK-Blue, IL-33, % inhibition at 100 nM (IgG) [5]: 99% | HEK-Blue, IL-33, IC50 (IgG) [5]: 1.52 nM | HEK-Blue, IL-36α, % inhibition at 100 nM (IgG) [5]: 100% | HEK-Blue, IL-36α, IC50 (IgG) [5]: 0.477 nM | KD (6)/KD (7.4) [6]: 4.1 ratio | KD (7.4) ratio to YIS [6]: 1.7 ratio | koff (6) ratio to YIS [6]: 3 ratio | KD (6)/KD (7.4) [7]: 10 ratio | KD (7.4) ratio to YIS [7]: 0.66 ratio | koff (6) ratio to YIS [7]: 2.8 ratio | Kd [8]: 0.0244 nM | koff [8]: 4.62e-05 s⁻¹ | kon [8]: 1.89e+06 M⁻¹ s⁻¹ | Kd [9]: 0.014 nM | koff [9]: 2.69e-05 s⁻¹ | kon [9]: 1.93e+06 M⁻¹ s⁻¹

B5: m11C5_C59T (antibody, mouse IgG2a, V domains shown)
VH: EVQLVESGGGLVKPGGSLKLSCAASGFTFSNYAMSWVRQTPEKRLEWVATVTEGGDYNYTLDDVKGRFTISRDNANDNLYLQMSHLKSEDSARYYCARDRWPYFFDYWGQGTTLTVSS
VL: DIQMTQSPASLSVSVGETVTITCRASENIYSNLAWYQQKQGRSPQLLVYGAKNLADGVPSRFSGSGSGTQYSLNINSLQSEDFGTYYCQHFWTTPRTFGGGTKLEIK
notes: Murine IgG2a constant domains
Kd [2]: 1.38 nM

The remaining binders from weak to strong by Kd [2], led by results:

Kd [2]: 0.699 nM
B7: c11C5 (chimeric 11C5) (antibody, IgG1, V domains shown)
VH: EVQLVESGGGLVKPGGSLKLSCAASGFTFSNYAMSWVRQTPEKRLEWVATVTEGGDYNYCLDDVKGRFTISRDNANDNLYLQMSHLKSEDSARYYCARDRWPYFFDYWGQGTTLTVSS
VL: DIQMTQSPASLSVSVGETVTITCRASENIYSNLAWYQQKQGRSPQLLVYGAKNLADGVPSRFSGSGSGTQYSLNINSLQSEDFGTYYCQHFWTTPRTFGGGTKLEIK
notes: Murine VL and VH, human CL and IgG1 CH1-CH3 domains

Kd [2]: 0.604 nM
B9: m11C5_C59V (antibody, mouse IgG2a, V domains shown)
VH: EVQLVESGGGLVKPGGSLKLSCAASGFTFSNYAMSWVRQTPEKRLEWVATVTEGGDYNYVLDDVKGRFTISRDNANDNLYLQMSHLKSEDSARYYCARDRWPYFFDYWGQGTTLTVSS
VL: DIQMTQSPASLSVSVGETVTITCRASENIYSNLAWYQQKQGRSPQLLVYGAKNLADGVPSRFSGSGSGTQYSLNINSLQSEDFGTYYCQHFWTTPRTFGGGTKLEIK
notes: Murine IgG2a constant domains

Kd [2]: 0.524 nM
B8: m11C5_C59Y (antibody, mouse IgG2a, V domains shown)
VH: EVQLVESGGGLVKPGGSLKLSCAASGFTFSNYAMSWVRQTPEKRLEWVATVTEGGDYNYYLDDVKGRFTISRDNANDNLYLQMSHLKSEDSARYYCARDRWPYFFDYWGQGTTLTVSS
VL: DIQMTQSPASLSVSVGETVTITCRASENIYSNLAWYQQKQGRSPQLLVYGAKNLADGVPSRFSGSGSGTQYSLNINSLQSEDFGTYYCQHFWTTPRTFGGGTKLEIK
notes: Murine IgG2a constant domains

HEK-Blue, IL-1β, IC50 [1]: 0.705 nM | HEK-Blue, IL-33, IC50 [1]: 2.25 nM | Kd [2]: 0.37 nM
B6: m11C5 (recombinant murine 11C5) (antibody, mouse IgG2a, V domains shown)
VH: EVQLVESGGGLVKPGGSLKLSCAASGFTFSNYAMSWVRQTPEKRLEWVATVTEGGDYNYCLDDVKGRFTISRDNANDNLYLQMSHLKSEDSARYYCARDRWPYFFDYWGQGTTLTVSS
VL: DIQMTQSPASLSVSVGETVTITCRASENIYSNLAWYQQKQGRSPQLLVYGAKNLADGVPSRFSGSGSGTQYSLNINSLQSEDFGTYYCQHFWTTPRTFGGGTKLEIK
notes: Murine IgG2a constant domains
